This is an account of results in US11591580B2, “K85 mutation-containing plant EPSPS mutant, and encoding gene and application thereof” (GEVOTO LLC, priority 2017, dated 2023).

Positions count from the first letter of the chain named.

The test system of data set [1] is EPSPS defective E. coli (E. coli DH5α with EPSPS gene and C-P Lyase gene being knocked out, EDCE). Nature of the data set: growth of E. coli transformed by genes encoding rice EPSPS (wild type and mutants) in culture media containing different glyphosate concentrations (Example 5, FIG. 1). It is filed as cell-based. The following applies: for EPSPS enzyme activity: concluded from growth of EPSPS defective E. coli at 0 mM glyphosate; for growth of transformed E. coli: culture media containing 1 mM glyphosate. An excerpt: E. coli transformed by the gene (SEQ ID NO: 3) encoding the rice EPSPS mutant I provided in Example 1 was taken as Experiment Group 1 (only containing a mutation K100(85)I).
E. coli transformed by the gene (with a nucleotide sequence represented by SEQ ID NO: 5, and an amino acid sequence of the encoded rice EPSPS mutant is represented by SEQ ID NO: 6) encoding the rice EPSPS mutant that contains only mutations G111(96)A and P116(101)S but no mutation K100(85)I was taken as Experiment Group 2.
E. coli transformed by the gene (SEQ ID NO: 7) encoding the rice EPSPS mutant II provided in Example 2 was taken as Experiment Group 3 (the encoded rice EPSPS mutant II contained three mutations: K100(85)I, G111(96)A and P116(101)S).
E. coli transformed by the gene (SEQ ID NO: 1, which encoded the wild-type rice EPSPS represented by SEQ ID NO: 2) encoding the wild-type rice EPSPS was taken as a control group.
The glyphosate resistance of the gene encoding the rice EPSPS mutant I and the rice EPSPS mutant I encoded thereby in E. coli, and the glyphosate resistance of the gene encoding the rice EPSPS mutant II and the rice EPSPS mutant II encoded thereby in E. coli were verified by detecting the growth situation of the transformed E. coli in culture media (culture media obtained by adding a certain concentration of antibiotics Spec (Spectinomycin), Gen (Gentamycin), Amp (Ampicillin) and glyphosate of different concentrations, with M9 as a basal culture medium) containing different glyphosate concentrations (0 mM, 1 mM, 10 mM, and 50 mM).
In the above, the E. coli used was double knockout E. coli, namely, EPSPS defective E. coli (E. coli DH5α with EPSPS gene and C-P Lyase gene being knocked out, named as EDCE, wherein for a preparation method thereof, reference can be made to a Chinese invention patent with the filing number CN2016103256926).
The detection method is a method commonly known in the art, and is briefly described as follows: synthesizing the gene encoding the rice EPSPS mutant by using a chemical synthesis method, introducing enzyme sites (Pac1 and Sbf1) at two ends thereof, connecting to an expression vector (for example, a pADV5 vector, the structure of which is shown in FIG. 4) that had undergone the same restriction enzyme digestion treatment under the action of ligase after restriction enzyme digestion, then transforming double knockout E. coli, picking positive colonies after verification, inoculating the positive colonies to a culture medium containing glyphosate for growth, and observing the growth situation.
Results are as shown in FIG. 1 (wherein R0 is a control group, R1 is Experiment Group 1, R2 is Experiment Group 2, and R3 is Experiment Group 3).

The subject of data set [2] is transgenic rice seedlings. Nature of the data set: glyphosate resistance of the EPSPS mutant in transgenic rice plants sprayed with glyphosate (Example 8, Table 1). The class given is in vivo, rice (Nipponbare). The following applies: for glyphosate resistance of transformed rice seedlings (in words): glyphosate sprayed at the 1× dosage. From the text:
A method for detecting the glyphosate resistance of the G1 soybean EPSPS mutant (SEQ ID NO: 20), G2 soybean EPSPS mutant (SEQ ID NO: 22) and G3 soybean EPSPS mutant (SEQ ID NO: 24) provided in Example 7, the R1 rice EPSPS mutant (SEQ ID NO: 4) provided in Example 5, and the Z1 maize EPSPS mutant (SEQ ID NO: 12) provided in Example 6 in the transgenic rice is as follows:
The plasmids (containing the EPSPS mutant gene) of the monoclonal resistant bacteria of pADV5-EPSPS in Examples 1-7 were extracted by a conventional method, followed by double enzyme digestion by Pac1 and BstEII, the small fragments were collected, and then the small fragments were ligated, using T4 DNA ligase, to the pGVP1 vectors that had undergone the same double enzyme digestion, to obtain a pGVP1-EPSPS vector having a structure as shown in FIG. 8.
In the present example, the glyphosate resistance of the EPSPS mutant in transgenic rice plants were verified. An experiment method is as follows:
The transgenic rice seedlings transplanted were uniformly arranged in a same experiment area (preventing leaves from overlapping). The areas occupied by the experiment groups and the control group were calculated, and according to the areas, glyphosate was sprayed at a 1× dosage of 1060 g/hectare (0.106 g/m^2). 2× dosage was 2120 g/hectare, 5× dosage was 5300 g/hectare, and 20× dosage was 21200 g/hectare.
Commercially available Roundup® 41% ammonium glyphosate was used. Roundup® ammonium glyphosate with corresponding volumes was taken according to the above sprayed concentrations, then diluted with 20 times of volume of water, and then uniformly sprayed on the plants in the experiment groups and the control group. After leaf surfaces were dry, the plants were moved into greenhouse or outdoor to cultivate.
After the glyphosate was sprayed at the 1× dosage, growth states of the plants in each group were observed and recorded on a 10th day, and glyphosate was sprayed to the survived plants at the 2× dosage. The growth states of the plants in each group were observed and recorded 10 days later, and glyphosate was sprayed to the survived plants at the 5× dosage. The growth states of the plants in each group were observed and recorded 10 days later, and glyphosate was sprayed to the survived plants at the 20× dosage. The growth states of the plants in each group were observed and recorded 10 days later, and results are shown in Table 1, wherein corresponding numbers of plants denoted by −, +, ++ and +++ are listed, and “%++&+++” is percentage of plant having medium and high glyphosate resistance to the total number of plants observed.

[3] abbreviates: 1X dosage (1060 g/hectare glyphosate), recorded on 10th day.
The mark [4] stands for this setting: 2X dosage (2120 g/hectare) sprayed to plants surviving 1X, recorded 10 days later.
Setting [5] is: 5X dosage (5300 g/hectare) sprayed to plants surviving 2X, recorded 10 days later.
Where [6] appears, read: 20X dosage (21200 g/hectare) sprayed to plants surviving 5X, recorded 10 days later.

B1: R0: wild-type rice EPSPS represented by SEQ ID NO: 2; control group of Example 5 (protein, listed as Oryza sativa)
chain: MASNAAAAAAKAEEIVLQPIREISGAVQLPGSKSLSNRILLLSALSEGTTVVDNLLNSEDVHYMLEALKALGLSVEADKVAKRAVVVGCGGKFPVEKDAKEEVQLFLGNAGTAMRPLTAAVTAAGGNATYVLDGVPRMRERPIGDLVVGLKQLGADVDCFLGTECPPVRVKGIGGLPGGKVKLSGSISSQYLSALLMAAPLALGDVEIEIIDKLISIPYVEMTLRLMERFGVKAEHSDSWDRFYIKGGQKYKSPGNAYVEGDASSASYFLAGAAITGGTVTVQGCGTTSLQGDVKFAEVLEMMGAKVTWTDTSVTVTGPPREPYGKKHLKAVDVNMNKMPDVAMTLAVVALFADGPTAIRDVASWRVKETERMVAIRTELTKLGASVEEGPDYCIITPPEKLNITAIDTYDDHRMAMAFSLAACADVPVTIRDPGCTRKTFPNYFDVLSTFVRN
Take B1: in data set [1], the EPSPS enzyme activity entry is reported as “normal EPSPS enzyme activity” and the “growth of transformed E. coli” value is given as “grew slowly”. In data set [2] (setting [3]), the “% ++&+++ (percentage of plant having medium and high glyphosate resistance to the total number of plants observed)” value was 0.0%; the “number of plants with resistance + (low glyphosate resistance)” value (from here on “number … (low glyphosate resistance)”) turned out to be 1; the “number of plants with resistance ++ (medium glyphosate resistance)” value (from here on “number … (medium glyphosate resistance)”) was determined as 0; the “number of plants with resistance +++ (high glyphosate resistance)” value (from here on “number of plants with resistance +++”) was 0. Also, the “number of plants with resistance − (no glyphosate resistance)” value (“number … (no glyphosate resistance)” for short) in data set [2] (setting [3]) is reported as 30. For the same molecule, in data set [2] (setting [4]), the “% ++&+++ (percentage of plant having medium and high glyphosate resistance to the total number of plants observed)” value turned out to be 0.0%; the “number … (low glyphosate resistance)” value was determined as 0; the “number … (medium glyphosate resistance)” value was found to be 0; the “number of plants with resistance +++” value was found to be 0. Further, the “number … (no glyphosate resistance)” value in data set [2] (setting [4]) is on record as 31. In data set [2] (setting [5]), the “% ++&+++ (percentage of plant having medium and high glyphosate resistance to the total number of plants observed)” value was 0.0%; the “number … (low glyphosate resistance)” value worked out at 0; the “number … (medium glyphosate resistance)” value came out at 0; the “number of plants with resistance +++” value was found to be 0. Besides, the “number … (no glyphosate resistance)” value in data set [2] (setting [5]) is listed as 31. Moreover, in data set [2] (setting [6]), the “% ++&+++ (percentage of plant having medium and high glyphosate resistance to the total number of plants observed)” value is on record as 0.0%; the “number … (low glyphosate resistance)” value amounted to 0; the “number … (medium glyphosate resistance)” value is 0; the “number of plants with resistance +++” value came out at 0. Also, the “number … (no glyphosate resistance)” value in data set [2] (setting [6]) turned out to be 31. For the same molecule, the “glyphosate resistance of transformed rice seedlings (in words)” value in data set [2] was “had no resistance, one was seriously damaged, and all the others died”.

B2: R1: rice EPSPS mutant I, SEQ ID NO: 4, containing one mutation K100(85)I (protein)
chain: B1 chain with K100I
modifications: Oryza sativa EPSPS mutant with mutation K100(85)I
With B2, in data set [1], the EPSPS enzyme activity entry is reported as “normal EPSPS enzyme activity” and the “growth of transformed E. coli” value was “obviously grew better than the control group (R0)”. Besides, in data set [2] (setting [3]), the “% ++&+++ (percentage of plant having medium and high glyphosate resistance to the total number of plants observed)” value is 88.9%; the “number … (low glyphosate resistance)” value stood at 0; the “number … (medium glyphosate resistance)” value stood at 0; the “number of plants with resistance +++” value is reported as 16. For the same molecule, the “number … (no glyphosate resistance)” value in data set [2] (setting [3]) stood at 2. In data set [2] (setting [4]), the “% ++&+++ (percentage of plant having medium and high glyphosate resistance to the total number of plants observed)” value is 27.8%; the “number … (low glyphosate resistance)” value stood at 5; the “number … (medium glyphosate resistance)” value came to 4; the “number of plants with resistance +++” value turned out to be 1. In addition, the “number … (no glyphosate resistance)” value in data set [2] (setting [4]) is on record as 8. In data set [2] (setting [5]), the “% ++&+++ (percentage of plant having medium and high glyphosate resistance to the total number of plants observed)” value amounted to 11.1%; the “number … (low glyphosate resistance)” value is reported as 3; the “number … (medium glyphosate resistance)” value is on record as 2; the “number of plants with resistance +++” value stood at 0. Besides, the “number … (no glyphosate resistance)” value in data set [2] (setting [5]) is 13. Also, in data set [2] (setting [6]), the “% ++&+++ (percentage of plant having medium and high glyphosate resistance to the total number of plants observed)” value is given as 0.0%; the “number … (low glyphosate resistance)” value was 2; the “number … (medium glyphosate resistance)” value is given as 0; the “number of plants with resistance +++” value is listed as 0. Also, in data set [2] (setting [6]), the “number … (no glyphosate resistance)” value came to 16. Moreover, in data set [2], the “glyphosate resistance of transformed rice seedlings (in words)” value was “obviously superior to that of the rice seedlings transformed by R0”.
